Assay results taken from paper doi:10.1101/2020.05.12.090472 (bioRxiv, 2020).
No end group written: not given here. *: point of attachment. Biotin = O=C1N[C@H]2[C@H](CS[C@H]2CCCCC(=O)*)N1

Target: Recombinant Cdk5/p25 complex (human Cdk5 and p25 with N-terminal GST-tags) (human, UniProt Q00535 1-292; Q15078 99-307)
Test: pull-down

binding result: binds
Binder: Biotin-ARAFGIPVRCYS [biotin-conjugated Cdk5i peptide]
